Where no end group is shown, it is not given here.

Assay [1] deals with T1, CD47 overexpressing Jurkat cells (Homo sapiens, UniProt Q08722).
T1 construct: endogenous in cells; host or cells: Jurkat cells
Put plainly: Competitive binding assay on CD47 overexpressing Jurkat cells. The settings on record: for IC50: against FITC-conjugated anti-CD47 B6H12.2 at ~33.3 nM, 3 h on ice; for increase of avidity compared to SIRPα monomer: ratio of IC50 values. The procedure:
This assay is to measure the binding avidity of multivalent PEG-SIRPα IgV pharmacophores to CD47 overexpressing Jurkat cells by competing against FITC-conjugated CD47 blocking antibody, and to compare the avidity to the affinity of wide-type SIRPα ectodomain.
FITC-conjugated mouse anti-human CD47 monoclonal antibody (Clone B6H12.2, Invitrogen) at the final concentration of 0.5 μg/100 μL (˜33.3 nM) was mixed with titrated concentration (from 0.04 nM to 10.5 μM in Stain Buffer) of SIRPα monomer (Acro Biosystems), 4-arm PEG-2K SIRPα IgV and 6-arm PEG-3.4K SIRPα IgV, both wide-type and Q67R mutant forms. The mixture was added into Jurkat cells (500,000 cells in 100 μL, final density). After incubation on ice for 3 h with occasional mixing, the cells were washed to remove the unbound reagents. The fluorescence intensity of FITC was quantified by flow cytometry. The increase of the binding activity for multivalent PEG-SIRPα IgV pharmacophores compared to SIRPα monomer can be calculated.

In assay [2] the target is T2, human red blood cells (RBCs) (Homo sapiens, UniProt Q08722).
T2 construct: from tissue; host or cells: red blood cells from human whole blood of healthy donors
T2 sequence (Q08722 19-323): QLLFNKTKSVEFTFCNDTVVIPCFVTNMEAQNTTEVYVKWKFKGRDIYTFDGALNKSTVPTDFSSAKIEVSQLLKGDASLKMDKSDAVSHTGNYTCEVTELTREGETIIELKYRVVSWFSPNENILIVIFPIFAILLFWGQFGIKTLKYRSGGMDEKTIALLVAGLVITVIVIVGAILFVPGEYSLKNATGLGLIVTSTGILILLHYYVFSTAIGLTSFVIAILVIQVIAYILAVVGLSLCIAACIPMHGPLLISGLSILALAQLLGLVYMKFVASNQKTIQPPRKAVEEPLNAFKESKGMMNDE
Put plainly: Competitive binding assay on human red blood cells. As to conditions: either wide-type or mutant SIRPα IgV; antibody at ~33.3 nM; titration up to 200 nM. The procedure: To assess the risks from binding of multivalent PEG-SIRPα IgV pharmacophores to normal RBCs and subsequent anemia as has been reported for many CD47 targeting agents, a similar competitive binding assay as (4) above is conducted using RBCs as the binding targets.
Human whole blood from healthy donors was drawn into sodium heparin tube. The blood was washed 3 times with PBS and diluted in Stain Buffer (0.5×10^6 RBCs in 100 μL, final density). The competitive binding was performed by incubating RBCs with FITC-conjugated CD47 blocking antibody (Clone B6H12.2, Invitrogen) at the final concentration of 0.5 μg/100 μL (˜33.3 nM) and titrated concentration of 4-arm, or 6-arm PEG-SIRPα IgV as described above, or an unconjugated CD47 blocking antibody (B6H12.2, Invitrogen). A mouse isotype IgG1 was used as a negative control. RBCs were incubated with the reagents on ice for 3 h, mixing occasionally. After washing, the fluorescence intensity of FITC on RBCs was quantified by flow cytometry.

Assay [3] concerns the target T3, uPAR on cells (uPAR overexpressing Hela, HT-1080, H1299, SW480 and PC3 cells) (human, UniProt Q03405 23-305).
T3 construct: whole, on cells; also called CD87; overexpressed uPAR
Put plainly: competitive flow cytometry on uPAR overexpressing Hela cells against PE-VIM5 at ~33.33 nM. The protocol:
Hela cells were detached from culture flasks by trypsin/EDTA, resuspended in complete culture medium in a 50 mL conical tube, and incubated for 1 h at 37° C. in 5% CO₂ incubator to allow receptor recovery. […] The mixture was added into Hela cells (500,000 cells in 100 μL; final density). After incubation on ice for 3 h with occasional mixing, the cells were washed to remove the unbound test reagents.
(In general: A flow cytometer gives signals particle by particle.)

T1 sequence (Q08722 19-323): as above
T3 sequence (Q03405 23-305): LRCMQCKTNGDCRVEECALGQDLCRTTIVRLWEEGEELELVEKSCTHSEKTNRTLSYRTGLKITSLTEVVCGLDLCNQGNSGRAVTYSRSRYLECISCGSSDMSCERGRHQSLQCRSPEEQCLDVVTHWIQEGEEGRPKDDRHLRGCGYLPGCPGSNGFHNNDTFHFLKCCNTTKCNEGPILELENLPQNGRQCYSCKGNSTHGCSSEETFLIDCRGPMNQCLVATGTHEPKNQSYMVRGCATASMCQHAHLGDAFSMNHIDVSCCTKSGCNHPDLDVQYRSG

B1: wide-type 4-arm PEG-SIRPα IgV: 4-arm PEG-2K conjugated with wide-type SIRPα IgV-like domain (conjugate)
chain: EEELQVIQPDKSVLVAAGETATLRCTATSLIPVGPIQWFRGAGPGRELIYNQKEGHFPRVTTVSDLTKRNNMDFSIRIGNITPADAGTYYCVKFRKGSPDDVEFKSGAGTELSVRA
In the case of B1, in assay [1], the IC50 worked out at 8.12 nM and the “increase of avidity compared to SIRPα monomer” value is “about 995 folds”.

B2: 4-arm PEG-SIRPα IgV: 4 units of SIRPα IgV-like domain conjugated to 4-arm PEG-2K; wide-type or Q67R mutant not specified (conjugate)
chain: EEELQVIQPDKSVLVAAGETATLRCTATSLIPVGPIQWFRGAGPGRELIYNQKEGHFPRVTTVSDLTKRNNMDFSIRIGNITPADAGTYYCVKFRKGSPDDVEFKSGAGTELSVRA
On to B2, for which the “competitive binding to RBCs against FITC-conjugated CD47 blocking antibody” value in assay [2] is listed as “did not compete”.

B3: wide-type 6-arm PEG-SIRPα IgV: 6-arm PEG-3.4K conjugated with wide-type SIRPα IgV-like domain (conjugate)
chain: EEELQVIQPDKSVLVAAGETATLRCTATSLIPVGPIQWFRGAGPGRELIYNQKEGHFPRVTTVSDLTKRNNMDFSIRIGNITPADAGTYYCVKFRKGSPDDVEFKSGAGTELSVRA
Consider B3, for which, in assay [1], the IC50 is 0.723 nM and the “increase of avidity compared to SIRPα monomer” value was ~11,174 folds.

B4: mutant 4-arm PEG-SIRPα IgV: 4-arm PEG-2K conjugated with Q67R mutant SIRPα IgV-like domain (conjugate)
chain: EEELQVIQPDKSVLVAAGETATLRCTATSLIPVGPIRWFRGAGPGRELIYNQKEGHFPRVTTVSDLTKRNNMDFSIRIGNITPADAGTYYCVKFRKGSPDDVEFKSGAGTELSVRA
B4 showed an IC50 in assay [1] of 10.9 nM.

B5: mutant 6-arm PEG-SIRPα IgV: 6-arm PEG-3.4K conjugated with Q67R mutant SIRPα IgV-like domain (conjugate)
chain: EEELQVIQPDKSVLVAAGETATLRCTATSLIPVGPIRWFRGAGPGRELIYNQKEGHFPRVTTVSDLTKRNNMDFSIRIGNITPADAGTYYCVKFRKGSPDDVEFKSGAGTELSVRA
As for B5, the IC50 in assay [1] came to 1.06 nM.

B6: 6-arm PEG-SIRPα IgV: 6 units of SIRPα IgV-like domain conjugated to 6-arm PEG-3.4K; wide-type or Q67R mutant not specified (conjugate)
chain: EEELQVIQPDKSVLVAAGETATLRCTATSLIPVGPIQWFRGAGPGRELIYNQKEGHFPRVTTVSDLTKRNNMDFSIRIGNITPADAGTYYCVKFRKGSPDDVEFKSGAGTELSVRA
As for B6, the “competitive binding to RBCs against FITC-conjugated CD47 blocking antibody” value in assay [2] is “did not compete”.

B7: 4-arm PEG-GFD (designed binder)
chain: VPSNCDCLNGGTCVSNKYFSNIHWCNCPKKFGGQHCEIDKSKT
modifications: not fully specified (C-terminus); ends and bridges not checked; also: four GFD units on 4-arm PEG-2K
notes: Four GFD units on 4-arm PEG-2K; Expressed in E. coli; also called tetravalent PEG-GFD pharmacophore; 4-arm PEG growth factor-like domain of uPA
For the molecule B7, the IC50 in assay [3] was found to be 1.14 nM.

B8: 6-arm PEG-GFD (designed binder)
chain: VPSNCDCLNGGTCVSNKYFSNIHWCNCPKKFGGQHCEIDKSKT
modifications: not fully specified (C-terminus); ends and bridges not checked; also: six GFD units on 6-arm PEG-3.4K
notes: Six GFD units on 6-arm PEG-3.4K; also called hexavalent PEG-GFD pharmacophore; 6-arm PEG growth factor-like domain of uPA
In assay [3], B8 showed a half-inhibitory concentration (IC50) of 0.412 nM.

One may read the IC50 as the point on the concentration scale where inhibition reaches its midpoint. A low value points to inhibition by little substance.

The values above are taken from patent publication US20210230248A1, “Multivalent pharmacophores for high avidity and overexpressed-target specific binding and uses thereof” (priority 2020, published 2021).
